Measurements published in US20110313018.

T1: GST-LGN/GPSM2 wild type, full-length recombinant (pGEX 6P-2-LGN/GPSM2, E. coli)
T1 chain: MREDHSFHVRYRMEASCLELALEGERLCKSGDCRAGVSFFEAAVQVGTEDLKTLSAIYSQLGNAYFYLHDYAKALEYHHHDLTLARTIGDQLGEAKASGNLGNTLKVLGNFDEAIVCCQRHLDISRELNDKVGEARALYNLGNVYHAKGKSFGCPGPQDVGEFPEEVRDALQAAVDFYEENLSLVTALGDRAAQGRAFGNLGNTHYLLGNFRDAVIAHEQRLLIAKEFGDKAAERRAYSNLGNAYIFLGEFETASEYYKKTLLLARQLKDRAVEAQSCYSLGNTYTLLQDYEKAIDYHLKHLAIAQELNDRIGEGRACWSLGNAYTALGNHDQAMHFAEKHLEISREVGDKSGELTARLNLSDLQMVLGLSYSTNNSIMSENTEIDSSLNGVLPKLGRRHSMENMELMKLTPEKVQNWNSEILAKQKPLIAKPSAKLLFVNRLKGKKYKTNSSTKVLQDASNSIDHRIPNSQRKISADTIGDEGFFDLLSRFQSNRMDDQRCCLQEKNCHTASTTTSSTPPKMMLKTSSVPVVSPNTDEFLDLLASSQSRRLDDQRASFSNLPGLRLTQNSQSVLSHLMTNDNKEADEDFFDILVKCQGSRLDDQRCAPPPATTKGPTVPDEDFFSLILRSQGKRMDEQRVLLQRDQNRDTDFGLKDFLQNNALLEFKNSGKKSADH

T2: His-tagged full-length recombinant LGN/GPSM2 (pET28a-LGN/GPSM2, E. coli)
T2 chain: T1 chain

B1: recombinant Aurora kinase B (SignalChem) (protein)
chain: MAQKENSYPWPYGRQTAPSGLSTLPQRVLRKEPVTPSALVLMSRSNVQPTAAPGQKVMENSSGTPDILTRHFTIDDFEIGRPLGKGKFGNVYLAREKKSHFIVALKVLFKSQIEKEGVEHQLRREIEIQAHLHHPNILRLYNYFYDRRRIYLILEYAPRGELYKELQKSCTFDEQRTATIMEELADALMYCHGKKVIHRDIKPENLLLGLKGELKIADFGWSVHAPSLRRKTMCGTLDYLPPEMIEGRMHNEKVDLWCIGVLCYELLVGNPPFESASHNETYRRIVKVDLKFPASVPMGAQDLISKLLRHNPSERLPLAQVSAHPWVRANSRRVLPPSALQSVA
B2: recombinant Aurora kinase A (SignalChem) (protein)
chain: MDRSKENCISGPVKATAPVGGPKRVLVTQQFPCQNPLPVNSGQAQRVLCPSNSSQRIPLQAQKLVSSHKPVQNQKQKQLQATSVPHPVSRPLNNTQKSKQPLPSAPENNPEEELASKQKNEESKKRQWALEDFEIGRPLGKGKFGNVYLAREKQSKFILALKVLFKAQLEKAGVEHQLRREVEIQSHLRHPNILRLYGYFHDATRVYLILEYAPLGTVYRELQKLSKFDEQRTATYITELANALSYCHSKRVIHRDIKPENLLLGSAGELKIADFGWSVHAPSSRRTTLCGTLDYLPPEMIEGRMHDEKVDLWSLGVLCYEFLVGKPPFEANTYQETYKRISRVEFTFPDFVTEGARDLISRLLKHNPSQRPMLREVLEHPWITANSSKPSNCQNKESASKQS
B3: recombinant full-length PBK/TOPK (Invitrogen) (protein)
chain: MEGISNFKTPSKLSEKKKSVLCSTPTINIPASPIMQKLGFGTGVNVYLMKRSPRGLSHSPWAVKKINPICNDHYRSVYQKRLMDEAKILKSLHHPNIVGYRAFTEASDGSLCLAMEYGGEKSLNDLIEERYKASQDPFPAAIILKVALNMARGLKYLHQEKKLLHGDIKSSNVVIKGDFETIKICDVGVSLPLDENMTVTDPEACYIGTEPWKPKEAVEENGVITDKADIFAFGLTLWEMMTLSIPHINLSNDDDDEDKTFDESDFDDEAYYAALGTRPPINMEELDESYQKVIELFSVCTNEDPKDRPSAAHIVEALETDV

What was measured:
[1] = biological target: T1, GST-LGN/GPSM2 wild type, full-length …
[2] = biological target: T2, His-tagged full-length recombinant …

Protein | in vitro kinase assay (autoradiography, [gamma-32P]-ATP) (GST-LGN/GPSM2 S401A) | in vitro kinase assay (autoradiography, [gamma-32P]-ATP) [1] | in vitro kinase assay (western blot with anti-phosphorylated threonine antibody) [2] | in vitro kinase assay with GST-LGN/GPSM2 WT and alanine substitutes (autoradiography) [1]
B1 | Substitution of serine 401 to alanine distinguished the phosphorylation of GST-LGN/GPSM2 by both Aurora kinase A and B | the phosphorylation of GST-LGN/GPSM2 by both Aurora kinase A and B | – | –
B2 | Substitution of serine 401 to alanine distinguished the phosphorylation of GST-LGN/GPSM2 by both Aurora kinase A and B | the phosphorylation of GST-LGN/GPSM2 by both Aurora kinase A and B | – | –
B3 | – | The autoradiography images also showed phosphorylation of the LGN/GPSM2 protein by PBK/TOPK (FIG. 8C) | found phosphorylation of the LGN/GPSM2 protein by PBK/TOPK in vitro (FIG. 8B) | PBK/TOPK, which was has been shown to phosphorylate LGN/GPSM2 in FIG. 8, did not phosphorylate these amino acids identified here (FIG. 10C)
